In FireProtDB (doi:10.1016/s0014-5793(99)00158-1):

B1: Barstar, P11540 (parent)
chain: MKKAVINGEQIRSISDLHQTLKKELALPEYYGENLDALWDCLTGWVEYPLVLEWRQFEQSKQLTENGAESVLQVFREAKAEGCDITIILS

Variants of: B1
Conditions: Bacillus amyloliquefaciens; pH 6.2; Thermal; DSC; Na-acetate 10 mM; NaCl 0.05 M; reversible: yes; structure 1BTA; whole UniProt chain shown

Variant	Tm [°C]	unfolding enthalpy (calorimetric) [kcal/mol]	unfolding enthalpy (van 't Hoff) [kcal/mol]
C83A	71.9	49	68
C41A C83A	73.6	73	71
C41A	74.1	51	73
